# Results as given in article PMC10666094.
# Test system: CNBP full-length
# Assay: MST
# Conditions: MST Buffer (composition, salt and pH not given); RED-Tris-NTA labeling 30 min at room temperature; RNA in 16 two-fold dilutions; 60% LED, high MST power …
substance,measurement,value
SARS-CoV-2 genome RNA,Kd,29.7 µg/mL
